Assay results: the supplement of paper PMC9170038

Key:
MS2 coat protein [1] = experiment: apparent KD of MS2 coat protein, switch OFF state (with FMN for OFF switches, without FMN for ON switches); designed switch direction (-1 OFF switch, 1 ON switch): -1; higher = weaker reporter binding; details: FMN input: 0 or 200 uM; Eterna round: R93 (includes R88 designs)
Procedure, shortened: (§1)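 The buffer was 100 mM Tris-HCl pH 7.5 with 80 mM KCl and 4 mM MgCl2, used without or with constant ligand. In it, RNA switches transcribed on-chip from Illumina sequencing clusters were titrated with SNAP-549-labelled MS2 coat protein in twofold steps from 0.7 or 1.5 nM to 3 µM. Apparent KD for each design is the median of its normalised cluster binding-curve fits.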

MS2 coat protein [2] = experiment: apparent KD of MS2 coat protein, switch ON state; designed switch direction (-1 OFF switch, 1 ON switch): -1; higher = weaker reporter binding; details: FMN input: 0 or 200 uM; Eterna round: R93 (includes R88 designs)
Procedure, shortened: as §1

Row | Sequence | apparent KD of MS2 coat protein (MS2 coat protein [1]) | apparent KD of MS2 coat protein (MS2 coat protein [2])
1 | AAGAAGUGAGGAUAUACAUGAAAGAAAGAAAAGAAAAGAAAACAUGAGGAUCACCCAUGUAGAAGGCACAAGAA [EteRNA is fun!] | 27.6 nM | 28.7 nM
2 | AAGAAGUGAGGAUAUCGAAGACAGACGAAAAGUCUGUCAAACGAGAAGGCACAUGAGGAUCACCCAUGUAAGAA [What have we learned so far?] | 43.7 nM | 34.8 nM
3 | AAGAAGUGAGGAUAUCGAAGACAGACGAAAAGUCUGUCAAACGAGAAGGCACAUGAGGAUCACCCAUGUGGGAG [Mat - Exaclusion 4 - Eli mod - D74] | 277 nM | 114 nM
4 | AAGAAGUGAGGAUAUCGAAGACUGUCGAAAAGACAGUCGAACGAGAAGGCACAUGAGGAUCACCCAUGUGAGAG [Mat - Exaclusion 4 - Eli mod - D66] | 46.2 nM | 31.9 nM
5 | AAGAAGUGAGGAUAUGCUGACAAUAUGAAGACUUGAGGUAUGCAGAAGGCACAUGAGGAUCACCCAUGUAAGAA [JR_Exclusion4_Sub4] | 23.6 nM | 27.4 nM
6 | AAGAAUGCAGGAUAUACAAGAAAGAAAGAAAAGAAAAGAAAACAUGAGGAUCACCCAUGUAGAAGGGCAUAGAA [EteRNA is fun!] | 25 nM | 32.6 nM
7 | AAGAAUGCAGGAUAUACAUGAGGAUCACCCAUGUAAAAGAAAGAAAAGGGAAAGAAAAGUAGAAGGGCAAAGAA [Satre-merenamun Tausret] | 30.5 nM | 29.6 nM
8 | AAGAAUGUAGGAUAUACAAGGAAGAAAGAAAAGAAAAGAAAACAUGAGGAUCACCCAUGUAGAAGGACAUAGAA [EteRNA is fun!] | 18.2 nM | 23.6 nM
9 | AAGACUACAGGAUAUACAUGAGGAUCACCCAUGUAACUGACAAGCAGAGUACGGAGAAGUAGAAGGGUAGUCAA [Ruby 33] | 30.1 nM | 20.3 nM
10 | AAGAUGUCAGGAUAUGCUGCUCGUCACGAAAGUGAUGAGUAGCAGAAGGGACAUGAGGAUCACCCAUGUAAAGA [Exclusion 4.1c (Exclusion4-cac2 - mutated U at 5)] | 140 nM | 112 nM
11 | AAGGGACAUGAGGAUCACCCAUGUCAGGAUAUGAUGCGAAUAAAGAAAGAAGAAAGCAUCAGAAGGGACAAAAA [58%, Disencluded 3, 3] | 57.6 nM | 33.7 nM
12 | AAGGUUGGAGGAUAUACAUAGAUACAGAUACAUGUAGACGUACAUGAGGAUCACCCAUGUAGAAGGCCAAUAUA [Mat - Same state - Mayanna Mod - D146] | 88.6 nM | 137 nM
13 | AAGUAGCUAGGAUAUACAUAGAUACAGAUUCAUGUAGAACUACAUGAGGAUCACCCAUGUAGAAGGAGCUAAUA [AJ 35] | 60.3 nM | 31.4 nM
14 | AAGUUGGUAGGAUAUACGUGCAAUUGGUGUGUCCGGAAAAAACAUGAGGAUCACCCAUGUAGAAGGACCAAAAA [Quonmabi] | 36.3 nM | 47.5 nM
15 | AAUAAACAUGAGGAUCACCCAUGUGAGGAUAUACAGAUUAUAAGAAAAAAAAAAAAAAGUAGAAGGCACAUAUA [Default title] | 45.9 nM | 17.6 nM
16 | AAUAAGUCAGGAUAUGCGAAUAGAAGAUAAGAUACCCAAAAGCAGAAGGGACAUGAGGAUCACCCAUGUAAAUA [JR_Exc004_Sub010] | 25.6 nM | 31.1 nM
17 | AAUAGUGAAGGAUAUACAGGAGAAGAAAGAUAAAAGAAAGAACAUGAGGAUCACCCAUGUAGAAGGUCAGAAGU [JR_Exc002_Sub1229] | 19.9 nM | 27.1 nM
18 | AAUAUGGGAGGAUAUGCAUAGAUAAAGAAACAUGUUAAAACACAUGAGGAUCACCCAUGUAGAAGGCCCAUAUA [AJ 10] | 335 nM | 103 nM
19 | AAUGGUGGAGGAUAUACAUGAGGAUCACCCAUGUAAAUCACACAUGUGGUCAAAGCAUGUAGAAGGCCACUAAA [Ex 3May 52] | 84.9 nM | 86 nM
20 | AAUUAGUGAGGAUAUACGGGAGGGAGGGAGGGAGGGAGGGAGUAGAAGGCACAUGAGGAUCACCCAUGUAAUUA [The West [Loop] is Red] | 49.9 nM | 20.8 nM
21 | ACAAGAUCAGGAUAUACAUGAGGAUCACCCAUGUAAAUCAAAAAGGGACUUACUUAAUGUAGAAGGGAUCAUGU [EX3 279: Random 15] | 106 nM | 28.6 nM
22 | ACAGCUGAAGGAUAUACUUGGGAAAAAAAAAAAAAAAAAAAACAUGAGGAUCACCCAUGUAGAAGGUCAGCUGA [Brourd - Exclusion 2 - Sub 1] | 43.5 nM | 82.2 nM
23 | ACUAAUGAAGGAUAUACAAACAACAAACACACAACACACACACAUGAGGAUCACCCAUGUAGAAGGUCAAACAU [JR_Exc002_Sub1203] | 15.6 nM | 15.8 nM

Row | Sequence | apparent KD of MS2 coat protein (MS2 coat protein [1]) | apparent KD of MS2 coat protein (MS2 coat protein [2])
24 | AGAAAACAUGAGGAUCACCCAUGUCAGGAUAUGUAAAAGAAAAGAAAAGAAAGAAGAAACAGAAGGGACAAGAA [Seth-Peribsen] | 53.7 nM | 56.9 nM
25 | AGAAAACAUGAGGAUCACCCAUGUGAGGAUAUGAAAAAGAAAAGAAAAGAAAGAAGAAUCAGAAGGCACAAGAA [Weneg] | 29.8 nM | 28.6 nM
26 | AGAAAACGAGGAUAUGCAAGGGAAGAAAGAAGAGAGAAAAAACAUGAGGAUCACCCAUGUAGAAGGUGUAAAAA [JR_Exc002_Sub1714] | 37.1 nM | 57.5 nM
27 | AGAAAGCUAGGAUAUACCUGGAGGGUUCUAAAUGAAAUAAAACAUGAGGAUCACCCAUGUAGAAGGAGCCCGAA [Sobire] | 16.6 nM | 18.3 nM
28 | AGAAAGUCAGGAUAUCAGAAACUAGUCGAAACGACUAGAAAUGAGAAGGGACAUGAGGAUCACCCAUGUAAGAA [Ex4 sub 2] | 43.1 nM | 46.3 nM
29 | AGAAAGUGAGGAUAUACAUGAGGAUCACCCAUGUAGAACGAGAGUUAUAAAAAUGGAAGUAGAAGGCGCAAAAG [water's exclusion 3 2nd] | 34.8 nM | 28.6 nM
30 | AGAAUACAUGAGGAUCACCCAUGUGAGGAUAUGCAGAUAAAAAUAAAAUAAAAUAAAUGCAGAAGGCACGAAAG [EX 1 May 21] | 86.1 nM | 37.1 nM
31 | AGCAAGUAAGGAUAUGCGAAGUCAGGACACACACUGACGAAGCAGAAGGUACAUGAGGAUCACCCAUGUAAGCA [JR_Exclusion-4 65% 3] | 18.7 nM | 24.6 nM
32 | AGCAUGUGAGGAUAUGCGGACUCCAAUAAAUCUGGAGUCCAGUAGAAGGCACAUGAGGAUCACCCAUGUGAUAA [Soenaesma] | 117 nM | 102 nM
33 | AGCUAGGUAGGAUAUACGUAAAUGUCGAAAGACGUAUUGGGACAUGAGGAUCACCCAUGUAGAAGGAUCUAGCA [it's a mod mod mod world 3] | 178 nM | 38.8 nM
34 | AGCUAGUCAGGAUAUACAAAAUGAUUGCGAAAGCAAUCAACACAUGAGGAUCACCCAUGUAGAAGGGACUAGCA [Mat - Exclusion 2 - JL-Eli mod - D43] | 21.1 nM | 18.5 nM
35 | AGCUAGUCAGGAUAUACGAAAAUGUACGAAGCUGAGAAGGGACAUGAGGAUCACCCAUGUAGAAGGGACUAGCA [Diamond 35] | 52.5 nM | 39.2 nM
36 | AGCUAGUCAGGAUAUACGAACAUGUCAAAAGACGUAAGGGAACAUGAGGAUCACCCAUGUAGAAGGGACUCGCA [Diamond 51] | 98.5 nM | 61.3 nM
37 | AGCUAGUCAGGAUAUACGAACAUGUCAAAAGACGUGAAAAAACAUGAGGAUCACCCAUGUAGAAGGGACUAGCA [Mat - Exclusion 2 - JL mod - D11] | 14.6 nM | 18.8 nM
38 | AGGAAACAUGAGGAUCACCCAUGUAAGGAUAUGAACGAAAAUAAAUAAAAAUAAAAGUUCAGAAGGUACAAAAA [66%, Wbt, 6] | 52.7 nM | 29.8 nM
39 | AGGAAACAUGAGGAUCACCCAUGUGAGGAUAUAUGAAAGAAAAGAAAAGAAAGAAGAAGUAGAAGGCACAAGAA [Djer] | 23.2 nM | 27.2 nM
40 | AGGAAGUGAGGAUAUGCUGCUCGUCACUUGCGUGAUGAGUAGCAGAAGGCACAUGAGGAUCACCCAUGUAAAAA [Mat - Exaclusion 4 - Eli mod - D21] | 48.9 nM | 46.7 nM
41 | AGGGAACAUGAGGAUCACCCAUGUGAGGAUAUGCUAUGGAAAAUAAAAAUAAAACAUAGCAGAAGGCAUAAAAA [Denovo 10] | 49.5 nM | 52.1 nM
42 | AGGGAGUAAGGAUAUGAGAAAGAAAAAGAAGGAAAAAAAGAUCAGAAGGUACAUGAGGAUCACCCAUGUAAAAA [milkweed 9] | 26 nM | 35.6 nM
43 | AGGGAGUGAGGAUAUACGAAAAAAAAAGAAGGAAAAAAAGAGUAGAAGGCACAUGAGGAUCACCCAUGUAAGAA [milkweed 13] | 26 nM | 35.8 nM
44 | AGUAUGCGAGGAUAUACAUGAGGAUCACCCAUGUGAGAGAUAAGUGUGAGAAAGACAAGUAGAAGGCGCGUACA [JL Lego Mod 27] | 331 nM | 106 nM
45 | AGUCAUACAGGAUAUACAUGAGGAUCACCCAUGUAUAUCCAAAAAAAAAAAAACUCAUGUAGAAGGGUAUGACA [EX3 206: Super Stable 6] | 12.4 nM | 12 nM
